Biological target: Kansetin (human) (UniProt Q9BYF1)
Experiment: SPR

Row | Substance | Kd [µM]
1 | Spike S1+S2 trimer of the SARS-CoV-2 Omicron BA.5 strain (natural protein) | 0.00122
2 | His-tagged RBD of the SARS-CoV-2 Omicron BA.5 strain (domain or fragment) | 0.0331

From PMC9695261
